The target of experiment [1] is HCV Core1-169 recombinant antigen (hepatitis C virus (HCV-1)) (UniProt P26664). The experiment can be described thus: sandwich EIA, 25 ng/ml core1-169; capture mAb 208A-557.
For experiment [2] the target is unchanged. Description: sandwich EIA, 25 ng/ml core1-169; capture mAb 208A-110.
The target is the same in experiment [3]. Description: sandwich EIA, 25 ng/ml core1-169; capture mAb C11-9.
Experiment [4] has the same target. Description: sandwich EIA, 25 ng/ml core1-169; capture mAb 208B-612-226.
For experiment [5] the target is unchanged. Description: sandwich EIA, 25 ng/ml core1-169; capture mAb 208A-293.
For experiment [6] the target is unchanged. Description: sandwich EIA, 25 ng/ml core1-169; capture mAb 208B-741.
For experiment [7] the target is unchanged. The experiment can be described thus: sandwich EIA, 25 ng/ml core1-169; capture mAb 208B-395-334.
Experiment [8] shares this target. Description: sandwich EIA, 25 ng/ml core1-169; capture mAb 208A-207-271.
The target is the same in experiment [9]. Description: sandwich EIA, 25 ng/ml core1-169; capture mAb 208B-1096.
Experiment [10] has the same target. The experiment can be described thus: sandwich EIA, 25 ng/ml core1-169; capture mAb 208A-692.
For experiment [11] the target is unchanged. Description: sandwich EIA, 25 ng/ml core1-169; capture mAb C11-7.
Experiment [12] shares this target. Description: sandwich EIA, 25 ng/ml core1-169; capture NC capture mAb.
Experiment [13] deals with HCV Core Peptide # 51 (aa 101-115) (hepatitis C virus). Description: EIA on coated peptide 51 (well C7); IgG 2 ug/mL.
Experiment [14] has as its target HCV Core Peptide # 48 (aa 95-109) (hepatitis C virus). The experiment can be described thus: EIA on coated peptide 48 (well H6); IgG 2 ug/mL.
Experiment [15] addresses HCV Core Peptide # 49 (aa 97-111) (hepatitis C virus). Description: peptide EIA summary (Table 11), peptide 49, aa 97-111.
Experiment [16] has as its target HCV Core Peptide # 53 (aa 105-119) (hepatitis C virus). Description: peptide EIA summary (Table 11), peptide 53, aa 105-119.
The target of experiment [17] is HCV Core Peptide # 50 (aa 99-113) (hepatitis C virus). The experiment can be described thus: EIA on coated peptide 50 (well B7); IgG 2 ug/mL.
For experiment [18], the target named is HCV Core Peptide # 52 (aa 103-117) (hepatitis C virus). The experiment can be described thus: peptide EIA summary (Table 11), peptide 52, aa 103-117.
Experiment [19] deals with HCV Core Peptide # 49 (aa 97-111) (hepatitis C virus). Description: EIA on coated peptide 49 (well A7); IgG 2 ug/mL.
For experiment [20], the target named is HCV Core Peptide # 52 (aa 103-117) (hepatitis C virus). Description: EIA on coated peptide 52 (well D7); IgG 2 ug/mL.
Experiment [21] concerns the target HCV Core Peptide # 54 (aa 107-121) (hepatitis C virus). The experiment can be described thus: EIA on coated peptide 54 (well F7); IgG 2 ug/mL.
For experiment [22], the target named is HCV Core Peptide # 48 (aa 95-109) (hepatitis C virus). The experiment can be described thus: peptide EIA summary (Table 11), peptide 48, aa 95-109.
The target of experiment [23] is HCV Core Peptide # 54 (aa 107-121) (hepatitis C virus). The experiment can be described thus: peptide EIA summary (Table 11), peptide 54, aa 107-121.
Experiment [24] deals with HCV Core Peptide # 50 (aa 99-113) (hepatitis C virus). The experiment can be described thus: peptide EIA summary (Table 11), peptide 50, aa 99-113.
The target in experiment [25] is HCV Core Peptide # 55 (aa 109-123) (hepatitis C virus). The experiment can be described thus: EIA on coated peptide 55 (well G7); IgG 2 ug/mL.
Experiment [26] concerns the target HCV Core Peptide # 51 (aa 101-115) (hepatitis C virus). The experiment can be described thus: peptide EIA summary (Table 11), peptide 51, aa 101-115.
The target in experiment [27] is HCV Core Peptide # 55 (aa 109-123) (hepatitis C virus). The experiment can be described thus: peptide EIA summary (Table 11), peptide 55, aa 109-123.
Experiment [28] concerns the target HCV Core Peptide # 53 (aa 105-119) (hepatitis C virus). The experiment can be described thus: EIA on coated peptide 53 (well E7); IgG 2 ug/mL.

From patent US20170052184A1 come the findings set out here.

HCV Core1-169 recombinant antigen (hepatitis C virus (HCV-1)), sequence (P26664 1-169, tags left off): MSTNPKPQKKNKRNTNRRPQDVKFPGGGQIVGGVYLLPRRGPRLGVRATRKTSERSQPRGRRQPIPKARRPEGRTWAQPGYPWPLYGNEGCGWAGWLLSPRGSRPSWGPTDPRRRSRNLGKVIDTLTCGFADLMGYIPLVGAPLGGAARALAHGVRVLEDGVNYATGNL

As to anti-HCV Core C11-7 monoclonal antibody, the OD492 nm is 0.64 OD492 in [1]; 1.78 OD492 in [2]; 1.04 OD492 in [3]; 0.53 OD492 in experiment [4]; 1.55 OD492 in experiment [5]; 1.76 OD492 in experiment [6]. The OD492 nm in [7] worked out at 0.46 OD492; in experiment [8] it was 0.22 OD492; in experiment [9], 0.45 OD492; in experiment [10], 0.18 OD492; in [11], 0.23 OD492; in experiment [12], 0.22 OD492.
For “negative control (NC) monoclonal antibody”, the OD492 nm turned out to be 0.18 OD492 in experiment [1]; 0.16 OD492 in experiment [2]; 0.14 OD492 in experiment [3]; 0.22 OD492 in experiment [4]; 0.23 OD492 in [5]; 0.18 OD492 in experiment [6]. Moreover, the OD492 nm in experiment [7] was 0.22 OD492; in experiment [8], 0.17 OD492; in experiment [9], 0.21 OD492; in experiment [10], 0.15 OD492; in experiment [11], 0.17 OD492; in [12] it was 0.18 OD492.
On to C11-3 (ABT-4) monoclonal antibody, for which the OD (A492 nm) was 1 OD in experiment [13]; 0.81 OD in experiment [14]; 1.03 OD (A492 nm) in experiment [15]; 0.36 OD (A492 nm) in experiment [16]; 0.97 OD in experiment [17]; 1.01 OD (A492 nm) in experiment [18]. The OD (A492 nm) in [19] was 0.97 OD; in [20], 0.96 OD; in experiment [21], 0.08 OD; in experiment [22], 0.95 OD (A492 nm); in experiment [23], 0.08 OD (A492 nm); in experiment [24] it was 1.03 OD (A492 nm). For the same substance, the OD (A492 nm) in experiment [25] is 0.06 OD; in experiment [26] it was 1.01 OD (A492 nm); in [27], 0.08 OD (A492 nm); in experiment [28] it was 0.36 OD.
Regarding anti-HCV Core C11-9 monoclonal antibody, the OD492 nm was 1.18 OD492 in experiment [1]; 2.59 OD492 in [2]; 2.75 OD492 in experiment [3]; 0.63 OD492 in experiment [4]; 1.84 OD492 in experiment [5]; 2.32 OD492 in experiment [6]. For the same substance, the OD492 nm in experiment [7] stood at 0.95 OD492; in experiment [8], 0.44 OD492; in experiment [9], 0.82 OD492; in experiment [10] it was 0.58 OD492; in experiment [11] it was 1.91 OD492; in experiment [12], 0.62 OD492.
